Experimental data reported in the emibetuzumab library of Makowski et al. (2022).

B1: VH:VL chains; a variant is named by its letters at X, in order (parent)
chain 1: QVQLVQSGAEVKKPGASVKVSCKASGYTFTDYXMHWVRQAPGQGLEWMGXVNPNXXXTTYNQKFEGRVTMTTDTSTSTAYMELRSLRSDDTAVYYCARXNXLDXWGQGTTVTVSS
chain 2: DIQMTQSPSSLSASVGDRVTITCSVSSSVSSIYLHWYQQKPGKAPKLLIYSTSNLASGVPSRFSGSGSGTDFTLTISSLQPEDFATYYCQVYSGYPLTFGGGTKVEIK

Variants of: B1
Experiment: yeast display scFab, FACS + sequencing
In short: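 For the non-specific binding call, a heavy-chain CDR mutant scFab library on the yeast surface was FACS-sorted and samples from two replicates were deep sequenced. Cells were labelled with anti-Myc and either biotinylated ovalbumin (260 μg/mL in PBSB, 3 h, room temperature) or soluble membrane proteins (130 μg/mL, 20 min on ice), with gates on the top 25% and bottom 10% of binders. With membrane protein and ovalbumin samples pooled, a sequence in ≥3 of 4 positive samples and no negatives was scored positive, and the converse rule scored negatives.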

| Variant | non-specific binding call |
| --- | --- |
| DGGTGDVF | no binding |
| SGGTGDVF | no binding |
| VGGTGSGA | no binding |
| VGGTGSGY | no binding |
| DGGTNAGD | no binding |
| DGGTNDGA | no binding |
| DGGTNDVA | no binding |
| DGGTNDVD | no binding |
| DGGTNSSA | no binding |
| VGGTSALD | no binding |
| VGGTSDGA | no binding |
| VGGTSDGD | no binding |
| VGGTSDGV | no binding |
| VGGTSDVA | no binding |
| VGGTSDVF | no binding |
| VGGTSDVV | no binding |
| VGGTSDWA | no binding |
| VGGTSSAD | no binding |
| VGGTSSGA | no binding |
| VGGTSSLD | no binding |
| VGGTSSSA | no binding |
| VGGTSSSS | no binding |
| VGGTSSSV | no binding |
| DGGTSYSV | no binding |

| Variant | non-specific binding call |
| --- | --- |
| AGGTSYSV | no binding |
| YGGTSYSV | no binding |
| FGKEDSVD | binds |
| DGKEGYWA | binds |
| VGKGDDAA | no binding |
| YGKGGDLA | binds |
| AGKGGFAY | binds |
| FGKGGFGY | binds |
| SGKGGSAY | binds |
| YGKGTSGF | no binding |
| SGKKAVWV | binds |
| SGKKSSGV | binds |
| YGKRDASY | binds |
| VGRATVGS | binds |
| SGREGDSA | no binding |
| SGREGDWD | binds |
| AGRGADLS | no binding |
| DGRGDALS | no binding |
| FGRGGVGD | binds |
| SGRGNAAD | no binding |
| SGRGNAGD | no binding |
| SGRGNALD | no binding |
| SGRGNDAV | no binding |
| SGRGNDGV | no binding |

| Variant | non-specific binding call |
| --- | --- |
| VGRGNSGD | no binding |
| DGRGNSGD | no binding |
| YGRGNSGD | no binding |
| SGRGNSGV | no binding |
| SGRGNSVD | no binding |
| VGRGNVGV | binds |
| FGRGSSWA | no binding |
| FGRGTSGD | binds |
| FGRRGAGV | binds |
| YGRRGFSV | binds |
| FGRRTYGD | binds |
| YGRTSAAV | binds |
| VGRTSFGF | binds |
| YGTAAFGF | binds |
| SGTADSSS | binds |
| YGTATFLV | binds |
| DGTGGAGA | no binding |
| DGTGGSGA chain 1 R67H | no binding |
| AGTKADVV chain 1 G108S | no binding |
| VGTKGAGF | binds |
| FGTKGAWD | binds |
| VGTKGDAA | no binding |
| VGTKGSSA | no binding |
| SGTKGYWD | binds |

| Variant | non-specific binding call |
| --- | --- |
| DGTKSYGV | binds |
| YGTRSAAD | no binding |
| AGTRSFGY | binds |
| YGTRSYGV | binds |
| AKAADSSD | binds |
| VKAAGSVD | binds |
| VKAASAVY | no binding |
| FKAEAFSF | binds |
| YKAEDVGD | binds |
| SKAENAWV | binds |
| VKAGASAD | binds |
| YKAGDAAA | binds |
| VKAGDAAV | no binding |
| YKAGDAGD | no binding |
| VKAGDAVY | no binding |
| SKAGDAWD | binds |
| VKAGDAWS | no binding |
| SKAGDAWY | binds |
| YKAGDDGA | no binding |
| VKAGDDVA | no binding |
| VKAGDSGA | no binding |
| YKAGDSSD | no binding |
| VKAGDSSS | no binding |
| YKAGDSVA | no binding |

| Variant | non-specific binding call |
| --- | --- |
| YKAGDVSV | binds |
| SKAGGAGA | binds |
| VKAGGAGS chain 1 G44D | binds |
| DKAGGAGV | no binding |
| YKAGGALA | binds |
| SKAGGALD | binds |
| YKAGGALD | binds |
| YKAGGALY | binds |
| AKAGGASD | binds |
| FKAGGAVA | binds |
| YKAGGAWD | binds |
| VKAGGDAV | no binding |
| DKAGGDGS | no binding |
| VKAGGDGS | no binding |
| VKAGGDSD | no binding |
| SKAGGDVD | no binding |
| VKAGGDVY | no binding |
| YKAGGFGA | binds |
| YKAGGFWF | binds |
| SKAGGSAD | binds |
| YKAGGSAS | binds |
| FKAGGSGA | binds |
| YKAGGSGV | binds |
| YKAGGSLF | binds |

| Variant | non-specific binding call |
| --- | --- |
| VKAGGSLY | binds |
| SKAGGVGA | binds |
| YKAGGYSD | binds |
| VKAGSAAA | no binding |
| SKAGSDVA | no binding |
| VKAGSDVA | no binding |
| FKAGSSGV | binds |
| AKAGSYGV | binds |
| VKAKDAGY | binds |
| YKAKGAAA | binds |
| VKAKGAAA | binds |
| YKAKGAAD | binds |
| YKAKGAGD | binds |
| YKAKGALD | binds |
| YKAKGASV | binds |
| FKAKGAWD | binds |
| SKAKGAWD | binds |
| SKAKGAWS | binds |
| DKAKGDGS | no binding |
| SKAKGFGV | binds |
| SKAKGSAA | binds |
| YKAKGSAV | binds |
| SKAKGSGA | binds |
| SKAKGSGV | binds |

| Variant | non-specific binding call |
| --- | --- |
| SKAKGSSD | binds |
| FKARDSGD | binds |
| FKARDSSA | binds |
| YKARGAAD | binds |
| VKARGAAV | binds |
| YKARGAAY | binds |
| YKARGAGA | binds |
| VKARGAGS | binds |
| YKARGAGV | binds |
| VKARGAGV | binds |
| YKARGALS | binds |
| FKARGALV | binds |
| FKARGASV | binds |
| YKARGAVY | binds |
| YKARGAWA | binds |
| YKARGAWD | binds |
| YKARGAWS | binds |
| YKARGSAA | binds |
| VKARGSAF | binds |
| VKARGSAV | binds |
| VKARGSGA | binds |
| YKARGSGA | binds |
| VKARGSGD | binds |
| YKARGSGS | binds |

| Variant | non-specific binding call |
| --- | --- |
| FKARGSGV | binds |
| VKARGSGV | binds |
| VKARGSLA | binds |
| YKARGSLV | binds |
| YKARGSLY | binds |
| YKARGSSS | binds |
| VKARGSVA | binds |
| FKARGSVD | binds |
| VKARGSVD | binds |
| YKARGSWD | binds |
| VKARNDLV | no binding |
| VKARSAGV | binds |
| YKARSALF | binds |
| YKARTSSS | binds |
| AKATADVD | binds |
| VKATAVAV | binds |
| DKATGDAY | no binding |
| FKATTSGA | binds |
| FKATTVVD chain 1 S88F | binds |
| VKEADAWV | no binding |
| VKEADDVA | no binding |
| AKEADDVA | no binding |
| FKEAGAVY | binds |
| SKEAGYSV | binds |

| Variant | non-specific binding call |
| --- | --- |
| DKEEADGV | no binding |
| YKEEDDAV | no binding |
| DKEEDSLA | no binding |
| YKEEDSLD | no binding |
| YKEGAYAD | binds |
| YKEGDSGV chain 1 R87K | no binding |
| DKEGGAAA | no binding |
| DKEGGAAD | no binding |
| DKEGGAAV | no binding |
| YKEGGAGD | no binding |
| VKEGGAVV | no binding |
| DKEGGAVV | no binding |
| DKEGGDAS | no binding |
| DKEGGDAV | no binding |
| DKEGGDGA | no binding |
| VKEGGDGA | no binding |
| DKEGGDGV | no binding |
| DKEGGDGY | no binding |
| DKEGGDLA | no binding |
| VKEGGDVA | no binding |
| DKEGGDVA | no binding |
| DKEGGDVD | no binding |
| DKEGGDVV | no binding |
| VKEGGDVV | no binding |

| Variant | non-specific binding call |
| --- | --- |
| DKEGGFGV | no binding |
| FKEGGSAA | binds |
| DKEGGSAD | no binding |
| VKEGGSAD | binds |
| YKEGGSGD | no binding |
| DKEGGSGV | no binding |
| DKEGGSLD | no binding |
| DKEGGSLV | no binding |
| DKEGGSSA | no binding |
| VKEGGSSA | no binding |
| DKEGGSSS | no binding |
| SKEGGVGV | binds |
| DKEGGYSV | no binding |
| FKEGNSLD | no binding |
| VKEKGALD | binds |
| YKEKGAVD | binds |
| VKEKGAWS | no binding |
| VKEKGAWV | binds |
| VKEKGAWY | binds |
| YKEKGDGA | no binding |
| VKEKGDGS | no binding |
